Reference: patent publication US20080090770A1, “Modulation of Muc1 Mediated Signal Transduction” (priority 2003, published 2008)

Target: GST-RIM2 (KIAA0751) PDZ domain 1 (human)
Experiment: modified ELISA, plated GST-RIM2 PDZ domain, biotinylated peptide 0.001-10 µM, curve fit; Relative EC50

Binder: YGRKKRRQRRRARGRRETWV (modifications not checked) [… (SEQ ID NO: 170)]
- EC50: < 10 nM
